B1: Pyridoxal 5'-phosphate synthase subunit PDX1.3 (Arabidopsis thaliana (Mouse-ear cress)), Q8L940 (parent)
chain: MEGTGVVAVYGNGAITEAKKSPFSVKVGLAQMLRGGVIMDVVNAEQARIAEEAGACAVMALERVPADIRAQGGVARMSDPQMIKEIKQAVTIPVMAKARIGHFVEAQILEAIGIDYIDESEVLTLADEDHHINKHNFRIPFVCGCRNLGEALRRIREGAAMIRTKGEAGTGNIIEAVRHVRSVNGDIRVLRNMDDDEVFTFAKKLAAPYDLVMQTKQLGRLPVVQFAAGGVATPADAALMMQLGCDGVFVGSGIFKSGDPARRARAIVQAVTHYSDPEMLVEVSCGLGEAMVGINLNDEKVERFANRSE
partner: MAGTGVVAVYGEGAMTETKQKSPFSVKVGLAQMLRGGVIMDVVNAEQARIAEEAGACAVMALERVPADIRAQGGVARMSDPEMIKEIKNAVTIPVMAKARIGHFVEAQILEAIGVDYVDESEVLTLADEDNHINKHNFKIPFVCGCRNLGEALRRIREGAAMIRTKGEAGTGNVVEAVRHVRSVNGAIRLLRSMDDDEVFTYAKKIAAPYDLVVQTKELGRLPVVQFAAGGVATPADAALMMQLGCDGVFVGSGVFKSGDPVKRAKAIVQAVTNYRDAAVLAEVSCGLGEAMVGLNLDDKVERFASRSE
B2: Pyridoxal 5'-phosphate synthase subunit PDX1.3 (Arabidopsis thaliana (Mouse-ear cress)), Q8L940 (parent)
chain: B1 chain
partner: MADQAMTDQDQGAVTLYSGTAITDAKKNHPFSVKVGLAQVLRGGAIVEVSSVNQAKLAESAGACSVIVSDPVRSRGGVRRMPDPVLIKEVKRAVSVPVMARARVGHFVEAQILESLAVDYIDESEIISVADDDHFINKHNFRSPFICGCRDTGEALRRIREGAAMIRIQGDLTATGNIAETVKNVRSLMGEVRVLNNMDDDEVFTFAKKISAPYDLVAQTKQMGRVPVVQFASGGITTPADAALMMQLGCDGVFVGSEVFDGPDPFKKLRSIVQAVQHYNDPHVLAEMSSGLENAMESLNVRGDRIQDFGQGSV
B3: Pyridoxal 5'-phosphate synthase subunit PDX1.3 (Arabidopsis thaliana (Mouse-ear cress)), Q8L940 (parent)
chain: B1 chain
partner: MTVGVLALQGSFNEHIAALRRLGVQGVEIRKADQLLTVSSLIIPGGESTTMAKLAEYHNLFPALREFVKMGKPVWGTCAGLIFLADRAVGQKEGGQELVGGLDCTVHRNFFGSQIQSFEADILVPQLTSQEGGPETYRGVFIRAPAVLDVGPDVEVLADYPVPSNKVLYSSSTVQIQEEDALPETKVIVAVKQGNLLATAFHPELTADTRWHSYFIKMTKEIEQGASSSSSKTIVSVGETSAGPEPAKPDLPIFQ

Variants of B1 are the subject of the first assay. As to conditions: with pdx11_arath PDX11, O80448.
Consider MEGTGVVAVYGNGAITEAKKSPFSVKVGLAQMLRGGVIMDVVNAEQARIAEEASACAVMALERVPADIRAQGGVARMSDPQMIKEIKQAVTIPVMAKARIGHFVEAQILEAIGIDYIDESEVLTLADEDHHINKHNFRIPFVCGCRNLGEALRRIREGAAMIRTKGEAGTGNIIEAVRHVRSVNGDIRVLRNMDDDEVFTFAKKLAAPYDLVMQTKQLGRLPVVQFAAGGVATPADAALMMQLGCDGVFVGSGIFKSGDPARRARAIVQAVTHYSDPEMLVEVSCGLGEAMVGINLNDEKVERFANRSE [G54S], for which the “effect of a mutation on the interaction” value was “disrupting interaction”.

In the next assay the parent is B2. As to conditions: with pdx12_arath PDX12, Q9ZNR6.
As to MEGTGVVAVYGNGAITEAKKSPFSVKVGLAQMLRGGVIMDVVNAEQARIAEEASACAVMALERVPADIRAQGGVARMSDPQMIKEIKQAVTIPVMAKARIGHFVEAQILEAIGIDYIDESEVLTLADEDHHINKHNFRIPFVCGCRNLGEALRRIREGAAMIRTKGEAGTGNIIEAVRHVRSVNGDIRVLRNMDDDEVFTFAKKLAAPYDLVMQTKQLGRLPVVQFAAGGVATPADAALMMQLGCDGVFVGSGIFKSGDPARRARAIVQAVTHYSDPEMLVEVSCGLGEAMVGINLNDEKVERFANRSE [G54S], the “effect of a mutation on the interaction” value is listed as “disrupting interaction”.

Variants of B3 are the subject of another assay. Conditions: with pdx2_arath PDX2, Q8LAD0.
As for MEGTGVVAVYGNGAITEAKKSPFSVKVGLAQMLRGGVIMDVVNAEQARIAEEASACAVMALERVPADIRAQGGVARMSDPQMIKEIKQAVTIPVMAKARIGHFVEAQILEAIGIDYIDESEVLTLADEDHHINKHNFRIPFVCGCRNLGEALRRIREGAAMIRTKGEAGTGNIIEAVRHVRSVNGDIRVLRNMDDDEVFTFAKKLAAPYDLVMQTKQLGRLPVVQFAAGGVATPADAALMMQLGCDGVFVGSGIFKSGDPARRARAIVQAVTHYSDPEMLVEVSCGLGEAMVGINLNDEKVERFANRSE [G54S], the “effect of a mutation on the interaction” value is “disrupting interaction”.

Values taken from IntAct's records for PubMed 16766694.
